A short description of the series: yeast display, Sf9 membrane polyspecificity reagent, FACS + sequencing; frameworks hold sequencing errors. In short, it runs like this: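 Using colony PCR, genes from sorted yeast display clones were amplified, then sequenced on MiSeq at 2 × 250 and filtered by CDR length. The clones had been stained with 10% biotinylated, detergent-solubilized Sf9 membrane reagent for 1 hour at 4 °C and sorted by FACS into low and high (top ~1%) gates on anti-HA and streptavidin fluorescence. Polyreactivity labels come from the gate of origin.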
Regarding “QVQLVESAGGLVQAGGSLRLSCAASGTIFALYAMGWYRQAPGKERELVARITRGGGSTYYADSVKGRFTISRDNAKNTVYLQMNSLKPEDTAVYYCAAARWSQYRTWMNYWGQGTQVTVSS”, the “polyreactivity (PSR sort gate)” value was “high polyreactivity”.
In the case of “QVQLVESAGGLVQAGGSLRLSCAASGYIFSDNTMGWYRQAPGKERELVAVITSGTSTSYADSVKGRFTISRDNAKNTVYLQMNSLKPEDSAVYYAARTGQYKTYGEYDYWGQGTQVTVSS” it was “low polyreactivity”.
As for “QVQLVESAGGLVQAGGSLRLSCAATGLIFKYYAMVWYRQAPGKEREMVATITRGGGSTYYADSVKGRFTISRDNAKNTVYFQMNSLKPEDTAVYYCAKRTSWKYGYWGQGTQVTVSS”, the “polyreactivity (PSR sort gate)” value is given as “high polyreactivity”.
With “QVQLVESAGGLVQAGGSLRLSCADSGSIFRYYAMGWYRQAQGQERELVAAISYSGGRTYYADSVKGRFTISRDNAKNTVYLQMNSLKPEDTAVYYCNAGAGKRGYDYWGQGTQVTVSS” the entry was “low polyreactivity”.
In the case of “QVQLVESAGGLVQAGGSLRLSCAPSGFIFKHNAMGWYRQAPGKERECVAAISWSGDSTYYADSVKGRFTISRDNAKNTVYLQMNSLKPEDTAVYYCAAVRALRKVRDYYYWGQGTQVTVSS” it was “high polyreactivity”; in that of “QVQLVESAGGLVQAGGSLRLSCAPSGSIFVAYAMGGYLQAPGKERELVAAISWRSGSTYYADSVKGRFTISRDNAKNTVYLQMNSLKPEDTAVYYSAAKQDQDYYWGQGTQVTVSS”, “low polyreactivity”.
With “QVQLVESAGGLVQAGGSLRLSCPASGGIFSWYHMGWYRQEPGKERELVAAISWSGGSTYYADSVKGRFTISRDNAKNTVYLLMNSLKPEDTAVYYCADYTADDYDYWGQGTQVTVSS” the entry was “high polyreactivity”; with “QVQLVESAGGLVQAGGSLRLSCPASGRTSVINAMGWYRQSPGKERELVAAISSDGITNYADSVKGRFTISRDNAKNTVYLQMISLKPEDTAVYYCAAEWYYVYIAPYDYWGQGTQVTVSS”, “low polyreactivity”; with “QVQLVESAGGLVQAGGSLRLSCYASGSIFTRNAMGWYRQAPGKERELVASISYSGGNTYYADSVKGRFTISRDNAKNTVYLQMNSLKPEDTAVYYCAALYSVYRDGYYWGQGTQVTVSS”, “high polyreactivity”.
On to “QVQLVESAGGLVQAGGSLRLSSDASGFTFYRYAIGWYIQAPGKEREFVAAISWRGTSTYYADSVKGRFKISRDNANNTVYLQMNSLKPEETAVYYCTARRDICWGYHMDYWGQGTQVTVSS”, for which the “polyreactivity (PSR sort gate)” value was “high polyreactivity”.
With “QVQLVESAGGLVQAGGSLSLICAASGIIFGGNAMGWSRQAPGKERELVAAISRSGGSTYYADSVKGRFTISRDNAKNTVYLQMTSLKPEDTAVYYCNAYYRYFRSIYDSCGQGTQVTVSS” the entry was “high polyreactivity”; with “QVQLVESAGGLVQAGGSLSLSCAASGFIFDGYAMGWYRQAPGKERELVAAINFSGGSTYYADSVKGRFTISRDNAKNTVYLQMNSLKPEDTSVYYCNADLEWYWVQFGYGYWGQGTQVTVSS”, “low polyreactivity”.
As to “QVQLVESAGGLVQAGGSLSLSCAASGRIFTDYAMGWYRQAPGKERELVARISRSDGSTYYADSVKGRFSISRDNAKNNVYLQMNSLKAEDTAVYYCAAQWTDGRRDHWWDKGFYYWGLGTQVTVSS”, the “polyreactivity (PSR sort gate)” value is “low polyreactivity”.
For “QVQLVESAGGLVQAGGTLSLSCAASGSTFYNYAMGWYRQAPGTETELVAAISSGGSTNYADSVKGRFTISRDNAKNTVYLQMNSLKPEDTAVYYCARRHRVYPSRIGHDYWGQGTQVTVSS”, the “polyreactivity (PSR sort gate)” value was “low polyreactivity”.
With “QVQLVESAGGLVQAGVSLRLSCDASGRIFRHNTMGWYRQAPGKERELVAAIRYSGGRTYYADSVKGRFTISRDNAKNTVYLQMNSLKPEDTAVYYCAKDTGQGYYWGQGTQVTVSS” the entry was “high polyreactivity”.
With “QVQLVESAGGLVQARVSLRLSSAASGRTIPTYTMGWYRQAPGKERELVAAITRGGSTKYADSVKGRFTISRDNAKNTVYLQMNSLKPEDTAVYYCAAVYRYRHSFAYYRHEMDYWGLGTQVTVSS” the entry was “low polyreactivity”; with “QVQLVESAGGLVQEGGSLRLSCAASGSISAPYAMGWYRQAPGKERELVAAISWRGGRTYYADSVKGRFTISRDNAKNTVYLQMNSLKTEDTAVDYCAAKFRLGQFDYDYWGQGTQVTVSS”, “high polyreactivity”; with “QVQLVESAGGVVQAGGSLRKSCAASLGWYRQAPGKERELVATITSDAGTNYADSVKGRFTISRDNAKNTVYLQMNSLKPEDTAVYYCAATPPYRVYGVNYWGQGTQVTVSS”, “low polyreactivity”.
With “QVQLVESARGLVQAGGSLRLRCAASGSTLSVYVMGWYRQAPGKERELVAAITRGGSTNYADSVKGRFTISRDNAKNTVYLQINSLNPEDTAVYYCAARSFVYYHHGEGSRSGRYYYWGQGTQVTVSS” the entry was “high polyreactivity”; with “QVQLVESAVGLVQAGGSRRLSCAASGRTFDSNAMGWYRQAPGKEREFVAAISWSGGSTYYADSVKGRFTISRDNAKNTVYLQMNSLKREETAVYYCNRLGRHAPATRYGYWGLGTQVTVSS”, “high polyreactivity”.
Take “QVQLVESCGGIVQAGGSLRLRCAASGLIFVANAMGWYRQAPVKESEMVAAISRYGGITYYADSVKGRFTISRDNAKNTVYLEMNSLKPEDTAVYYCAKNLPSNGHYDYWGQGTQVTVSS”: the “polyreactivity (PSR sort gate)” value is given as “low polyreactivity”.
With “QVQLVESCGGIVQAGGSLRLSCAASGSTFRVNAMGWYRHSPGKERELVAAIRKSGGSTYADSVKGRFTISRDNAKNTFNLQMNSLKPEDTGVYYCNADATAWLGLADNYWVQGTQVTVSS” the entry was “low polyreactivity”; with “QVQLVESCGGLVEAGGSLRLSCAASGSILYSNAMGWYRQGPGKESELVAAIRSGGSTSYADSVKGRFTISRDNANNTVYLQMNSLKPDDTAVYYSAADPSSGVTYGMYYWGQGSQVTVSS”, “low polyreactivity”; with “QVQLVESCGGLVHAGGSLRLSCAASGITLKWNDMGLYRQAPGKEREFVAAITGSTGSTFYADSVKGRFTISRDNAKNTVYLQMNSLKPEDTAVYYCAAGPWFYYWGQGTQVTVSS”, “low polyreactivity”.
Take “QVQLVESCGGLVQAGGILRLSCAASGSTFRYYVMGWYRQAPGKERELVAAITSGGSKYYADSVKGRFTISRDNEQNTVYLQMNSLKPDDTAVYYCNKVYSRTFDYWGQGTQVTVSS”: the “polyreactivity (PSR sort gate)” value is “high polyreactivity”.
Regarding “QVQLVESCGGLVQAGGILRLSCADYGSIFYYNAMGWYRQAPGKERQLVAAITRSGSTNYAESVKLRFTISRDNAKNTVYLQMNSLKPEDTAVYYCAAPWRGSVFRYYSWGQGTQVTVSS”, the “polyreactivity (PSR sort gate)” value is given as “low polyreactivity”.
In the case of “QVQLVESCGGLVQAGGRLRLSCAASGRNFQQYAMGWSRQAPGKERELVAAISRGGSTYYADSVKGRFTISRDNAKNTVYLQMNRLKPEDTAVYYCAARWWRRFSGSHSLYDYWGQGTQVTVSS” it was “high polyreactivity”; in that of “QVQLVESCGGLVQAGGSHRLSCAASGSTFAYNDMGWYRQAPGKERELVADIRSGGNTNYADSVKGRFTISRDNAKNTVYLQMNSLKPEDTAVYYRATDGYRIDVYHPDYRYDYWGQGTQVTVSS”, “low polyreactivity”.
In the case of “QVQLVESCGGLVQAGGSLRLICAASGSIFFRNAKGWYRQAPGKERELVAAIRYTGTSTYYADSVKGRFTISRDNAKNTVYVQMNSLKPEDTAVYYCAKPWGSVRRREMDYWGQGTQVTVSS” it was “low polyreactivity”; in that of “QVQLVESCGGLVQAGGSLRLSCAASGFICNGYTMGWSRQAPWKERELVAAISGSGGRTYYADSVKGRFTISRDNAKKTVYLQMNSLKPEDTAVYYCAASNWHSRGSGEYYWGQGTQVTVSS”, “high polyreactivity”.
With “QVQLVESCGGLVQAGGSLRLSCAASGFIFYYYAMGWYRQAPGKERELVAGITRGGSTYYADSVKGRFTISRDNAKNTVYLQMNSLKPEDTAVYYCASTYYLSYTSGTFGKFGYWGQGTQVTVSS” the entry was “high polyreactivity”; with “QVQLVESCGGLVQAGGSLRLSCAASGIIFRYYAMGWYRQAPGKEREFVASINFSGSSTYYADSVKGRFTISRDNAKNSVYLQMKSLKPEDTAVYYCAAGRRWLYDYWGQGTQVTVSS”, “high polyreactivity”; with “QVQLVESCGGLVQAGGSLRLSCAASGITYVYYAMGWYRQAPGKERELVAGITSGTSTYYADSVKGRFTISRDNAKNTVYLQINSLKPEDTAVYYCATGYRRGSTYGYWGQGTQVTVSS”, “low polyreactivity”.
“QVQLVESCGGLVQAGGSLRLSCAASGRTFPAYAMGWSRQAPGKERELVAAISSSGSRTYYADSVKGRFTISRDNAKNTVYLQMNSLKQEDTAVYYCAARGGRRQKVNRDDYWGQGTQVTVSS”: the “polyreactivity (PSR sort gate)” value was “high polyreactivity”.
With “QVQLVESCGGLVQAGGSLRLSCAASGRTFYKNTMGWYRQAPGKERELVATISQRGGSTYYADSVKGRFTISRDNAKNTVFLQMHSLKPEDTAVYYCNARHYYIWWRSPTRTAMNYWGQGTQVTVSS”, the “polyreactivity (PSR sort gate)” value is “high polyreactivity”.
With “QVQLVESCGGLVQAGGSLRLSCAASGSTFRFNTMGWYRQPPGKERELVAAITRGGSTNYADSVKGRFTISRDNAKNTVYLQMNSLKPEDTAVYFCAAGYCWTFDYDYWGQGTQVTVSS” the entry was “low polyreactivity”; with “QVQLVESCGGLVQAGGSLRLSCAASGSTFRTYAMGWYRQAPGKERELVASIDSTGSTNYADSVKGRFTISSDNAKNSVYLQMNSLKPEDTAVYDCAAETYSYPPFYAYDYWGQGTQVTVSS”, “low polyreactivity”; with “QVQLVESCGGLVQAGGSLRLSCAASGSTFSYNAMGWYRQAPGKEREMVAAITYGGGSTYYADSVKGRFTISRDNAKNTVYLQMNSLKPEDTAVYYCAVEKYGRYRPYSYGYWGQGTQVTVSS”, “high polyreactivity”.
With “QVQLVESCGGLVQAGGSLRLSCAASGSTFVVNAMGGYRQAPGKERELVADISFTGDSTFYADSVKGRFTISRDNAKNTVYLEMNSLKPDDTAVYYCAADFRRVFSKYSYYLYFDFDYWGQGTQVTVSS” the entry was “low polyreactivity”; with “QVQLVESCGGLVQAGGSLRLSCAASGSTFYRNAMGWYRQAPGKEREFVAAISFRGGGTYADSVKGRFTISRDNAKNTVYLQMNSLKPEDTAVYYCAADHLSYRRRYEYWGQGTQVTVSS”, “low polyreactivity”.
For “QVQLVESCGGLVQAGGSLRLSCAASGSTYAMGWYRQAPGKERELVASITSRGGSTYYADSVKGRFTISRDNAKNTVYLQMNSLKPEDTAVYYCNRVYRYPYNYWGQGTQVTVSS”, the “polyreactivity (PSR sort gate)” value is given as “high polyreactivity”.

The values above are taken from the nanobody polyreactivity screen of Harvey et al. (2022).
